Assay results as given in publication PMC6105031, “The crystal structure of KSHV ORF57 reveals dimeric active sites important for protein stability and function” (PLoS Pathogens, 2018).

Experiments:
[1] = molecular target: GFP-tagged full-length ORF57 with all three disrupted nuclear localization signals (ORF57 mt1+2+3) (UniProt Q2HR75); assay: nuclear translocation assay (fluorescence microscopy of cotransfected cells)
[2] = molecular target: the molecule itself; assay: crystal structure; spindle-shaped crystal, sitting-drop vapor diffusion at 4°C, 0.1 M BIS-TRIS propane pH 7.0, 0.8 M lithium sulfate; space group P6(4)22, two molecules in the asymmetric unit, 3.5 Å
[3] = COS-1 cells, 50 double-color positive cells counted, parent: 88

FLAG-tagged full-length ORF57 (from UniProt Q2HR75) W292P
other: % cells with nuclear translocation [1, 3]: 0%

FLAG-tagged full-length ORF57 (from UniProt Q2HR75) C333S; H423L; C427S; C432S
other: % cells with nuclear translocation ([1]; n=50): 0%

FLAG-tagged full-length ORF57 (from UniProt Q2HR75) R325A; R327A
other: % cells with nuclear translocation [1, 3]: 4%

B1: C-terminal domain (CTD) of KSHV ORF57 (residues 167 to 455) (domain or fragment)
chain: GVSDAVKKLRLPASMIIDGESPRFDDSIIPRHHGACFNVFIPAPPSHVPEVFTDRDITALIRAGGKDDELINKKISAKKIDHLHRQMLSFVTSRHNQAYWVSCRRETAAAGGLQTLGAFVEEQMTWAQTVVRHGGWFDEKDIDIILDTAIFVCNAFVTRFRLLHLSCVFDKQSELALIKQVAYLVAMGNRLVEACNLLGEVKLNFRGGLLLAFVLTIPGMQSRRSISARGQELFRTLLEYYRPGDVMGLLNVIVMEHHSLCRNSECAAATRAAMGSAKFNKGLFFYPLS
notes: KSHV ORF57 (MTA), residues 167 to 455, GenBank ABD28908.1; Crystallised as a dimer (spindle-shaped crystal) and as a monomer (cubic crystal, 4.0 M LiCl); also called ORF57-CTD; source: E. coli BL21 (DE3), purified (Ni-NTA, ULP1 digestion, Superdex 75); not shown: His6, N-terminal, cleaved; SUMO (Smt3 of Saccharomyces cerevisiae), N-terminal, cleaved
stoichiometry N [2]: 2
